Where a SMILES comes first, the peptide text is derived from it. [ ]: non-standard residue; d: D form. Dolaproine = CO[C@@H]([C@@H]1CCCN1)[C@@H](C)C(=O)O; Dil = CC[C@H](C)[C@H](NC)[C@@H](CC(=O)O)OC; NMeV = CN[C@H](C(=O)O)C(C)C
Assays:
HuH7 cells = experiment: Efficacy of G2-2-ADC in HuH7 cells (cell viability, PrestoBlue); assay type: cell-based, human; conditions: medium changed after one hour, viability after 98 hours, read-out: IC50 as determined by drug component
Method: FIG. 14 An antibody drug conjugate consisting of MMAF attached to a Malamide exchange linker linked to G2-2 was added to HuH7 cells.
An antibody drug conjugate consisting of MMAF attached by a malameide exchange linker to G2-2 was added to the cell culture medium of HUH7 cells in different concentrations. Medium was changed after one hour. Cell viability was analyzed after 98 hours using PrestoBlue reagent (ThermoFischer).

sGP73 (GP73 AA56 to 401) = target: T1, sGP73 (GP73 AA56 to 401) (Homo sapiens, UniProt Q8NBJ4); experiment: Protein ELISA on sGP73-His; assay type: binding; conditions: plates coated with sGP73; absorbance 450 nm
T1 construct: contains sGP73-10×His, encompassing GP73 AA56 to 401 (sGP73); made in house; host or cells: 293HEK cells, isolated from the supernatant by IMAC
T1 sequence (Q8NBJ4 with tags, fused parts or gaps): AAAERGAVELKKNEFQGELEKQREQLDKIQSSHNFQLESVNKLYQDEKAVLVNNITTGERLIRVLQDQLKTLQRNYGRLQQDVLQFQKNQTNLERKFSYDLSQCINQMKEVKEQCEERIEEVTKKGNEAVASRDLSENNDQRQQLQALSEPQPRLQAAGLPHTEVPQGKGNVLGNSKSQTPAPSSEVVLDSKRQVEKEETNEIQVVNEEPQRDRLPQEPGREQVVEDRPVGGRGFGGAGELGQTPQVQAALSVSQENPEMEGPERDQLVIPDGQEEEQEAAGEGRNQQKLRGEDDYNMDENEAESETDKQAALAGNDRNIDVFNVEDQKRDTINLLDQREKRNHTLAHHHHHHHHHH
Method: (§1) 293HEK cells were either transfected with cDNA containing full length GP73 AA 1-401 C-terminal tagged with 10×HIS-Tag or with a GP73 ΔN variant containing AA 36 to 401 with a R52A mutation, resulting in a non-cleavable variant, C-terminal tagged with 10×HIS-Tag (GP73-His AVRR). In both constructs a secretion signal was added in frame to the N-terminus. The supernatant of the full length GP73 expressing cells contains sGP73-10×His, encompassing GP73 AA56 to 401 (sGP73; SEQ ID NO: 40), that has been proteolytically cleaved by furin or another protease at AA 55. The supernatant of the GP73 ΔN variant contains GP73-10×His AVRR, encompassing GP73 AA36 to 401 (GP73 AVRR; SEQ ID NO: 41) as shown in FIG. 20. Only the latter of the two constructs contains the rGP73 epitope. Both proteins were isolated by IMAC.
(§2) ELISA was carried out in 96 well plates coated overnight with sGP73 or GP73 AVRR and blocked with 2% gelatine. Antibodies 8A10, G2-2opti (IgG2a) or isotype control antibody were applied, incubated for 1.5 hours and washed away. A secondary Horse radish peroxidase labeled anti mouse antibody was added for 1 hour and after extensive washing a chromogenic substrate (TMB Amersham) was applied to detect peroxidase.

[1] = target: T2, GP73 AVRR (GP73 AA36 to 401, R52A) (Homo sapiens, UniProt Q8NBJ4, R52A); experiment: Protein ELISA on GP73-His AVRR; assay type: binding; conditions: plates coated with GP73 AVRR; absorbance 450 nm
T2 construct: contains GP73-10×His AVRR, encompassing GP73 AA36 to 401 (GP73 AVRR); made in house; host or cells: 293HEK cells, isolated from the supernatant by IMAC
T2 sequence (Q8NBJ4 with tags, fused parts or gaps R52A): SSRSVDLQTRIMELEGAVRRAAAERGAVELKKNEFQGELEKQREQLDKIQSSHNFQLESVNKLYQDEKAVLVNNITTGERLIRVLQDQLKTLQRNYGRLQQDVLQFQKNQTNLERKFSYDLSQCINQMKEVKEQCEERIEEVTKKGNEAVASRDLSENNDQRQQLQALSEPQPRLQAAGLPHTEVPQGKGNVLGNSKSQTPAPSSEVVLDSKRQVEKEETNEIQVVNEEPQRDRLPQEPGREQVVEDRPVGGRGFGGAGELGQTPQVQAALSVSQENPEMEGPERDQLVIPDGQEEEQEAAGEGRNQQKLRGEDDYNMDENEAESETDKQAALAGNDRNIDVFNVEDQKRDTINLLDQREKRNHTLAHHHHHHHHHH
Method: as §1, §2

GP73 peptide: […] = target: T3, GP73 peptide: […] (Homo sapiens, UniProt Q8NBJ4); experiment: Biacore surface plasmon resonance, data fit for 1:1 binding; conditions: Biacore 1:1 binding fit; GP73 peptide SSRSVDLQTRIMELEGRVRR
T3 construct: GP73 peptide: […]
Method: In one embodiment, Kd is measured using surface plasmon resonance assays using a BIACORE®-2000 or a BIACORE®-3000 (BIAcore, Inc., Piscataway, N.J.) at 25° C. with immobilized antigen CM5 chips at […] response units (RU). Briefly, carboxymethylated dextran biosensor chips (CM5, BIACORE, Inc.) are activated with N-ethyl-N′-(3-dimethylaminopropyl) carbodiimide hydrochloride (EDC) and N-hydroxysuccinimide (NHS) according to the supplier's instructions. Antigen is diluted with 10 mM sodium acetate, pH 4.8, to 5 μg/ml (−0.2 μM) before injection at a flow rate of 5 μl/minute to achieve approximately 10 response units (RU) of coupled protein. Following the injection of antigen, 1 M ethanolamine is injected to block unreacted groups. For kinetics measurements, two-fold serial dilutions of antibody (0.58 nM to 200 nM) are injected in PBS with 0.05% polysorbate 20 (TWEEN-20™) surfactant (PEST) at 25° C. at a flow rate of approximately 25 μl/min. Association rates (kon) and dissociation rates (koff) are calculated using a simple one-to-one Langmuir binding model (BIACORE® T100 Evaluation Software) by simultaneously fitting the association and dissociation sensorgrams. The equilibrium dissociation constant (Kd) is calculated as the ratio koff/kon. See, e.g., Chen et al., J. Mol. Biol. 293:865-881 (1999). If the on-rate exceeds […] s^−1 by the surface plasmon resonance assay above, then the on-rate can be determined by using a fluorescent quenching technique that measures the increase or decrease in fluorescence emission intensity (excitation=295 nm; emission=340 nm, 16 nm band-pass) at 25° C. of a 20 nM anti-antigen antibody in PBS, pH 7.2, in the presence of increasing concentrations of antigen as measured in a spectrometer, such as a stop-flow equipped spectrophometer (Aviv Instruments) or a 8000-series SLM-AMINCO™ spectrophotometer (ThermoSpectronic) with a stirred cuvette.

peptide AA 36-55 of GP73 [2] = target: T4, peptide AA 36-55 of GP73 (Homo sapiens, UniProt Q8NBJ4); experiment: Competition peptide ELISA with HRP-labeled antibodies; assay type: binding; conditions: unlabeled competing antibody at high concentration; binding antibody G2-2-HRP
Method: A peptide ELISA was performed using horse radish peroxidase labeled G2-1 (G2-1-HRP) or G2-2 (G2-2-HRP) as binding antibodies and G2-1 or G2-2 as competing antibodies. […] Binding to peptide AA 36-55 of GP73 served as positive control (filled circle), negative control was binding to an unrelated peptide (filled diamond) as described in Example 5.
(§3) ELISA was carried out in 96 well plates coated overnight with biotinylated peptide and blocked with 2% gelatine. Horse radish peroxidase labeled antibodies G2-1 (G2-1-HRP) or G2-2 (G2-2-HRP) were applied and incubated for 1.5 hours. For competition testing non labeled G2-1 or G2-2 was added at high concentration. For pH dependent binding the antibodies were applied in phosphate buffer pH 4.4, 5.4, 6.4 or 7.4. After extensive washing a chromogenic substrate (TMB Amersham) was added to detect peroxidase. The reaction was stopped and absorbance was read at 450 nm.

peptide AA 36-55 of GP73 [3] = target: T4, peptide AA 36-55 of GP73; experiment: pH dependent peptide ELISA; assay type: binding; conditions: pH range of 7.4 to 5.4
Method: A peptide ELISA was performed to test for pH dependency of binding to peptide AA 36-55 of GP73.
as §3

[4] = target: T5, Furin cleavage of recombinant GP73-HIS (Homo sapiens, UniProt Q8NBJ4); experiment: Furin cleavage of GP73-HIS depending on antibody binding (capture ELISA); assay type: biochemical; conditions: 3 U and 1.5 U of Furin; 2 hours at 30° C.
T5 construct: purchased Biolegend
T5 sequence (Q8NBJ4 36-401 limits assumed): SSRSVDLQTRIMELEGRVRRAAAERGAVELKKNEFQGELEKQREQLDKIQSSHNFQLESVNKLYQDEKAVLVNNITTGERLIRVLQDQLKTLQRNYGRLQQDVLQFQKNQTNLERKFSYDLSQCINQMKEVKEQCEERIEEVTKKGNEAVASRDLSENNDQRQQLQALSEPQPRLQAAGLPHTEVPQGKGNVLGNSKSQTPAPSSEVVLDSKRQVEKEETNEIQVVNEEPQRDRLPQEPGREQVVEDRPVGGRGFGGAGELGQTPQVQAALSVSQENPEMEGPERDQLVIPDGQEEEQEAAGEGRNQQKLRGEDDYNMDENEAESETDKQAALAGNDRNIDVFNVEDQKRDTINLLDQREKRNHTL
Excerpt: Measurements of Furin cleavage of GP73 using a range from 0 units to 3 units of Furin are depicted.
Testing of Furin cleavage exploits the fact that antibodies G2-1 and G2-2 bind GP73 N-terminal of or at the furin cleavage site 56R whereas recombinant GP73 with C-terminal HIS tag (GP73-HIS) is detected by anti HIS antibody at the C-terminus of GP73. Plate bound anti human IgG can capture G2-1 or G2-2, which binds GP73-HIS. If furin cleavage occurs in a setting where G2-1 or G2-2 have already bound to GP73-HIS, only N-terminal part of GP73 will reside at the G2 antibodies. In contrast, if furin cleavage is hindered by G2 antibodies, GP73-HIS can be detected by an anti HIS antibody.
Furin cleavage was carried out in 1.5 ml tubes. To test if G2 antibodies can hinder furin cleavage recombinant GOLPH-HIS protein (Biolegend) and G2-2 or G2-1 was incubated for 2 hours in 100 mM HEPES and 1 mM CaCl2 buffer pH 7.5 to allow antibody binding to GP73. […]
From each reaction 2×100 ul were transferred to wells of a 96 well plate that had been coated over night with anti human IgG and was blocked with 1% gelatine in PBS. After one hour incubation at room temperature the plate was washed, incubated with anti HIS-hrp antibody for one hour, washed again, incubated with a chromogenic substrate (TMB Amersham) to detect peroxidase, stopped and read at 450 nm.

CC[C@H](C)[C@@H]([C@@H](CC(=O)N1CCC[C@H]1[C@H](OC)[C@@H](C)C(=O)N[C@@H](Cc1ccccc1)C(=O)O)OC)N(C)C(=O)[C@@H](NC(=O)[C@@H](NC)C(C)C)C(C)C [MMAF, monomethylauristatin F] (H-[NMeV]V[Dil][Dolaproine]F-OH)
IC50 (HuH7 cells): 277 nM

B1: G2-2opti (IgG2a): chimeric human/murine version of G2-2opti with murine constant domains (antibody, V domains shown)
VH: QVQLVQSGGGVVQPGRSLRLSCAASGFTFSSYGMHWVRQAPGKGLEWVAVISYDGSNKYYADSVKGRFTISRDNSKNTLYLQMNSLRAEDTAVYYCAREGSAGMDVWGQGTTVTVSS
VL: QAVLTQPSSLSASPGASASLTCTLRSDISVGFHRIYWYQQKPGSPPQYLLRYKSDSDKQQGSGVPSRFSGSKDASANAGILLISGLQSDDEADYYCVIWHTSGVVFGGGTKLTVL
binding to sGP73 (ELISA) (sGP73 (GP73 AA56 to 401)): not to sGP73 | binding to GP73 AVRR (ELISA) [1]: binds to GP73 AVRR

B2: G2-1: scFv clone with human IgG1 heavy and human Igk light constant regions; VH/VL SEQ ID NO: 10 and 11; binds rGP73 (antibody, V domains shown)
VH: EVQLLESGGGVVQPGRSLRLSCAASGFTFSSYAMSWVRQAPGKGLEWVSVISYDGSNKAYADSVKGRFTISRDNSKNTLYLQMNSLRAEDTAVYYCARGRSYYDSSGYLFDYWGQGTLVTVSS
VL: DIQMTQPHSVSESVGKTVIITCTGGGGSIDTNYVQWYQQRPGSAPVTLIYEDDQRPFGVPDRFSAAIDTSSSSASLTISGLTAEDEATYYCQSSHSTAVVFGGGTKVEIK
modifications: human IgG1 and Igk constant regions not cited; G2-1 heavy chain variable region (VH); G2-1 light chain variable region (VL)
koff, measurement 1 + 2 mean (GP73 peptide: […]): 0.001981 s⁻¹ | kon, measurement 1 + 2 mean (GP73 peptide: […]): 635200 M⁻¹ s⁻¹ | competition with G2-2-HRP for peptide binding (peptide AA 36-55 of GP73 [2]): Competitive inhibition | pH dependency of binding to peptide AA 36-55 of GP73 (peptide AA 36-55 of GP73 [3]): Stable binding | Furin cleavage of GP73 after preincubation with antibody [4]: significant reduction in Furin cleavage

— patent US11697680B2, “Anti-GP73 antibodies and immunoconjugates” (CUREAB GMBH, priority 2016, dated 2023)
